In patent publication US20030148956A1 (PROCTER AND GAMBLE, published 2003):
Ends that are not written are not given here.

T1: corticotropin releasing factor 2 receptor
T1 sequence (Q13324 whole entry, species assumed, looked up): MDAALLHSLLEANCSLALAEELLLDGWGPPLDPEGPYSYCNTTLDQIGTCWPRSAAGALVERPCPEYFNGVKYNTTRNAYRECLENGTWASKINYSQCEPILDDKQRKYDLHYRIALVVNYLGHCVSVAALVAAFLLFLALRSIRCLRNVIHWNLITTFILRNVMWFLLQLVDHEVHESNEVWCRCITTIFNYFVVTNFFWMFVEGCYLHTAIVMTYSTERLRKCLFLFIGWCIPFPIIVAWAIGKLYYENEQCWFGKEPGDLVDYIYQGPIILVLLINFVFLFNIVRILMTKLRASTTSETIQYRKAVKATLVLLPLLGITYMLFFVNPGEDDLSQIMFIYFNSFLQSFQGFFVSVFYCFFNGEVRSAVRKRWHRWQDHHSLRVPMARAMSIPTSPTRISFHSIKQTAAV

T2: CRF2R
T2 sequence (Q13324 whole entry, species assumed, looked up): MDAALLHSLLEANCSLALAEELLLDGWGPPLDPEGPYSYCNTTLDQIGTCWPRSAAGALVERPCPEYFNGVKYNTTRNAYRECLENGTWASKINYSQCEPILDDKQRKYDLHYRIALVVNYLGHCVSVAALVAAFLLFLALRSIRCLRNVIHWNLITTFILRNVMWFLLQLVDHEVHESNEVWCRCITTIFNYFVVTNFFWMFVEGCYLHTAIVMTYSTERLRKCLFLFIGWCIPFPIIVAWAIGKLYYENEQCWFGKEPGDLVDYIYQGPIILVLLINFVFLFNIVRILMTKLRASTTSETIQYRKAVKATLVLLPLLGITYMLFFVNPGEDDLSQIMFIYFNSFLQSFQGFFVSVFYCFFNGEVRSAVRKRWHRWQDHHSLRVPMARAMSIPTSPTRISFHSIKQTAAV


Experiments:
Assay in all cases: cell-based or functional assay
[1] = biological target: corticotropin releasing factor 1 receptor
[2] = biological target: T1, corticotropin releasing factor 2 …
[3] = biological target: T2, CRF2R
[4] = biological target: CRF1R

Row | CRF1R EC50 [1] [nM] | CRF1R Emax % [1] [%] | CRF2R EC50 [2] [nM] | CRF2R Emax % [2] [%] | CRF2R EC50 [3] [nM] | CRF2R Emax [3] [%] | CRF1R EC50 [4] [nM] | CRF1R Emax [4] [%] | Binder
1 | 744 | 83.5 | 100 | 72.6 | – | – | – | – | NDDPPISIDLPLFLLRNMIEMARIENEREQAGLNAKYLAEV-NH2 [SEQ ID NO 257]
2 | 1000 | 4.45 | 100 | 19.4 | – | – | – | – | NDDPPISIDLPTYLLRNMIEMARIENEREQAGLNAKYLAEV-NH2 [SEQ ID NO 266]
3 | 408 | 100 | 100 | 92.2 | – | – | – | – | NDDPPISIDLPFHLLRNMIEMARIENEREQAGLNAKYLAEV-NH2 [SEQ ID NO 262]
4 | 834 | 89.7 | 100 | 89.3 | – | – | – | – | NDDPPISIDLPFLLLRNMIEMARIENEREQAGLNAKYLAEV-NH2 [SEQ ID NO 260]
5 | 704 | 100 | 100 | 66.3 | – | – | – | – | NDDPPISIDLPFFLLRNMIEMARIENEREQAGLNAKYLAEV-NH2 [SEQ ID NO 264]
6 | 1000 | 22.8 | 100 | 44.2 | – | – | – | – | NDDPPISIDLPYYLLRNMIEMARIENEREQAGLNAKYLAEV-NH2 [SEQ ID NO 267]
7 | – | – | – | – | 7.81 | 99 | 906 | 60 | ZGPPISIDLPFQLLRKMIEIEKQEKEKQQATTNARLLDTV (C-terminal amide) [SEQ ID NO 20]
8 | – | – | – | – | 10.2 | 100 | 1000 | 82 | ZGPPISIDLPFQLLRKMIEIEKQEKEKQQATTNARLLARV (C-terminal amide) [SEQ ID NO 23]
9 | – | – | – | – | 8.33 | 100 | 1000 | 64 | ZGPPISIDLPFQLLRKMIEIEKQEKEKQQATTNARLLDRV (C-terminal amide) [SEQ ID NO 22]
10 | – | – | – | – | 8.46 | 96 | 908 | 88 | ZGPPISIDLPFQLLRKMIEIEKQEKEKQQATTNARLLATV (C-terminal amide) [SEQ ID NO 21]
11 | 802 | 72 | 36.2 | 93 | – | – | – | – | DNPSLSIDLPYYLLRTLLELARTQSQRERAEQNAIIFASV-NH2 [SEQ ID NO 263]
12 | 254 | 100 | 12.6 | 100 | – | – | – | – | ZGPPISIDVPFQLLRKMIEIEKQEKEKQQAANNRLLLDTI (C-terminal amide) [SEQ ID NO 256]
13 | – | – | – | – | 43.1 | 100 | > 1000 | 18 | ZGPPISIDLPITLLRKMIEIEKQEKEKQQAANNRLLLDTI (C-terminal amide) [SEQ ID NO 24]
14 | – | – | – | – | 8.3 | 100 | 63.7 | 65 | ZGPPISIDLPFLLLRKMIEIEKQEKEKQQAANNRLLLDTI (C-terminal amide) [SEQ ID NO 191]
15 | – | – | – | – | 10.2 | 97 | 43.5 | 90 | ZGPPISIDLPWQLLRKMIEIEKQEKEKQQAANNRLLLDTI (C-terminal amide) [SEQ ID NO 210]
16 | – | – | – | – | 10.1 | 97 | 266 | 95 | ZGPPISIDLPLVLLRKMIEIEKQEKEKQQAANNRLLLDTI (C-terminal amide) [SEQ ID NO 193]
17 | – | – | – | – | 3.6 | 93 | 32.1 | 74 | ZGPPISIDLPYILLRKMIEIEKQEKEKQQAANNRLLLDTI (C-terminal amide) [SEQ ID NO 204]
18 | – | – | – | – | 8.7 | 99 | 404 | 100 | ZGPPISIDLPYQLLRKMIEIEKQEKEKQQAANNRLLLDTI (C-terminal amide) [SEQ ID NO 202]

Row | CRF1R EC50 [1] [nM] | CRF1R Emax % [1] [%] | CRF2R EC50 [2] [nM] | CRF2R Emax % [2] [%] | CRF2R EC50 [3] [nM] | CRF2R Emax [3] [%] | CRF1R EC50 [4] [nM] | CRF1R Emax [4] [%] | Binder
19 | – | – | – | – | 5 | 96 | 106 | 94 | ZGPPISIDLPLILLRKMIEIEKQEKEKQQAANNRLLLDTI (C-terminal amide) [SEQ ID NO 194]
20 | – | – | – | – | 27.7 | 97 | 447 | 96 | ZGPPISIDLPQLLLRKMIEIEKQEKEKQQAANNRLLLDTI (C-terminal amide) [SEQ ID NO 196]
21 | – | – | – | – | 8.8 | 100 | 188 | 99 | ZGPPISIDLPYTLLRKMIEIEKQEKEKQQAANNRLLLDTI (C-terminal amide) [SEQ ID NO 200]
22 | – | – | – | – | 61.4 | 96 | 466 | 88 | ZGPPISIDLPQHLLRKMIEIEKQEKEKQQAANNRLLLDTI (C-terminal amide) [SEQ ID NO 207]
23 | – | – | – | – | 5.6 | 88 | 64.9 | 81 | ZGPPISIDLPYHLLRKMIEIEKQEKEKQQAANNRLLLDTI (C-terminal amide) [SEQ ID NO 208]
24 | – | – | – | – | 7.4 | 93 | 26.4 | 80 | ZGPPISIDLPWHLLRKMIEIEKQEKEKQQAANNRLLLDTI (C-terminal amide) [SEQ ID NO 209]
25 | – | – | – | – | 5.2 | 94 | 76.2 | 86 | ZGPPISIDLPYLLLRKMIEIEKQEKEKQQAANNRLLLDTI (C-terminal amide) [SEQ ID NO 203]
26 | – | – | – | – | 30.5 | 97 | 696 | 97 | ZGPPISIDLPAHLLRKMIEIEKQEKEKQQAANNRLLLDTI (C-terminal amide) [SEQ ID NO 206]
27 | – | – | – | – | 59.5 | 100 | 826 | 37 | ZGPPISIDLPAQLLRKMIEIEKQEKEKQQAANNRLLLDTI (C-terminal amide) [SEQ ID NO 211]
28 | – | – | – | – | 5 | 100 | 99.6 | 80 | ZGPPISIDLPYVLLRKMIEIEKQEKEKQQAANNRLLLDTI (C-terminal amide) [SEQ ID NO 201]
29 | – | – | – | – | 66.8 | 97 | 562 | 99 | ZGPPISIDLPIWLLRKMIEIEKQEKEKQQAANNRLLLDTI (C-terminal amide) [SEQ ID NO 192]
30 | – | – | – | – | 18.8 | – | 103 | 93 | ZGPPISIDLPLFLLRKMIEIEKQEKEKQQAANNRLLLDTI (C-terminal amide) [SEQ ID NO 195]
31 | – | – | – | – | 25 | 93 | 126 | 88 | ZGPPISIDLPHHLLRKMIEIEKQEKEKQQAANNRLLLDTI (C-terminal amide) [SEQ ID NO 205]
32 | – | – | – | – | 8.5 | 92 | 706 | 93 | ZGPPISIDLPQILLRKMIEIEKQEKEKQQAANNRLLLDTI (C-terminal amide) [SEQ ID NO 199]
33 | 1000 | 23.6 | 100 | 49.3 | – | – | – | – | NDDPPISIDLPFQLLRNMIEMARIENEREQAGLNAKYLAEV-NH2 [SEQ ID NO 258]
34 | 1000 | 9.3 | 100 | 23.4 | – | – | – | – | NDDPPISIDLPQYLLRNMIEMARIENEREQAGLNAKYLAEV-NH2 [SEQ ID NO 265]
35 | 820 | 83.6 | 100 | 65 | – | – | – | – | NDDPPISIDLPLHLLRNMIEMARIENEREQAGLNAKYLAEV-NH2 [SEQ ID NO 259]
36 | 274 | 100 | 100 | 95.3 | – | – | – | – | NDDPPISIDLPFYLLRNMIEMARIENEREQAGLNAKYLAEV-NH2 [SEQ ID NO 261]
